Test results reported in article PMC3578099 (Journal of structural biology, 2013).
Like-named read-outs stand apart in the source and are kept apart here. Square brackets hold non-standard residues; d marks the D form. Ends that are not written are not given here. pY = N[C@@H](Cc1ccc(OP(=O)(O)O)cc1)C(=O)O

Legend:
[1] = target: T1, SHP-1 C453S catalytic domain (residues 243–530) (human, UniProt P29350 243-530, C453S); test: ITC
[2] = target: T1, SHP-1 C453S catalytic domain (residues …); test: ITC; remark: listed apart in the source

T1 sequence (P29350 243-530 C453S): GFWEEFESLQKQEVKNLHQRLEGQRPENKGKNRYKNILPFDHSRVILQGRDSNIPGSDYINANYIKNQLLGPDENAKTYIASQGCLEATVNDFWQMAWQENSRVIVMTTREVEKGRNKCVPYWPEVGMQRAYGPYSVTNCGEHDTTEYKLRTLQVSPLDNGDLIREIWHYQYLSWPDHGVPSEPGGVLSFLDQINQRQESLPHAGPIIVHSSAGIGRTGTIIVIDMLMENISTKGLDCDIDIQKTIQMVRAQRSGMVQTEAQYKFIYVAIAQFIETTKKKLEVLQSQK

| Binder | Kd [1] [µM] | Kd [2] [µM] | dH [2] [kcal/mol] | stoichiometry N [2] |
| --- | --- | --- | --- | --- |
| ETDKE[pY]YTVKD [JAK1 activation loop phosphopeptide E1029TDKEpYYTVKD] | 13.4 | 13.7 ± 1.4 | -28.7 ± 7.3 | 0.7 |
| ETDKEY[pY]TVKD [JAK1 activation loop phosphopeptide E1029TDKEYpYTVKD] | – | 5.6 ± 1.1 | -21.5 ± 3.5 | 0.9 |
